pKd: −log10 of the molar value.
Tests used:
[1] = molecular target: human transferrin receptor 1 (human) (UniProt P02786); test: Carterra LSA at 25C, IgG captured on anti-IgG lawn, hTfR1 injected, 1:1 Langmuir fit
[2] = molecular target: human transferrin receptor 2 (human) (UniProt Q9UP52); test: ELISA on human TfR2, RFU
Chain of human transferrin receptor 2 (human) (Q9UP52 105-801 limits assumed): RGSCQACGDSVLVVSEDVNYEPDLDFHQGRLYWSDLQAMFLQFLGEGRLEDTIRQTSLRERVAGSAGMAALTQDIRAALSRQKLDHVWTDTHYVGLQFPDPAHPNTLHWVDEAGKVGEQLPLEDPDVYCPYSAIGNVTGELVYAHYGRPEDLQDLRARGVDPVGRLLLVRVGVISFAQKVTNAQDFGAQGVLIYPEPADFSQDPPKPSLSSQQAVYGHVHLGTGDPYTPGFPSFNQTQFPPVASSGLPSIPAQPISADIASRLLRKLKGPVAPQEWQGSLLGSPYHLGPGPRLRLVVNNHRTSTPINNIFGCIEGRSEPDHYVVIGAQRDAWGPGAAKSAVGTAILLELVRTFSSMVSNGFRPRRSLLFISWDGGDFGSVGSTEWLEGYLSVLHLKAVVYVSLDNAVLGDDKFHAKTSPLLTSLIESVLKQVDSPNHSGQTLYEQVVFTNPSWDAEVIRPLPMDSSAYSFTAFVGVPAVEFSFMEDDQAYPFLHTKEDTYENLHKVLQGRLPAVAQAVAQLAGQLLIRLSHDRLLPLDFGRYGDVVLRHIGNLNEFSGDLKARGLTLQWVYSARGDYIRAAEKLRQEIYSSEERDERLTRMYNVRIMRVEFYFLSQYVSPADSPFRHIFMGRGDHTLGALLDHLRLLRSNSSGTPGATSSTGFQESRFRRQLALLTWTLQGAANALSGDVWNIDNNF

Chain of human transferrin receptor 1 (human) (P02786 89-760 limits assumed): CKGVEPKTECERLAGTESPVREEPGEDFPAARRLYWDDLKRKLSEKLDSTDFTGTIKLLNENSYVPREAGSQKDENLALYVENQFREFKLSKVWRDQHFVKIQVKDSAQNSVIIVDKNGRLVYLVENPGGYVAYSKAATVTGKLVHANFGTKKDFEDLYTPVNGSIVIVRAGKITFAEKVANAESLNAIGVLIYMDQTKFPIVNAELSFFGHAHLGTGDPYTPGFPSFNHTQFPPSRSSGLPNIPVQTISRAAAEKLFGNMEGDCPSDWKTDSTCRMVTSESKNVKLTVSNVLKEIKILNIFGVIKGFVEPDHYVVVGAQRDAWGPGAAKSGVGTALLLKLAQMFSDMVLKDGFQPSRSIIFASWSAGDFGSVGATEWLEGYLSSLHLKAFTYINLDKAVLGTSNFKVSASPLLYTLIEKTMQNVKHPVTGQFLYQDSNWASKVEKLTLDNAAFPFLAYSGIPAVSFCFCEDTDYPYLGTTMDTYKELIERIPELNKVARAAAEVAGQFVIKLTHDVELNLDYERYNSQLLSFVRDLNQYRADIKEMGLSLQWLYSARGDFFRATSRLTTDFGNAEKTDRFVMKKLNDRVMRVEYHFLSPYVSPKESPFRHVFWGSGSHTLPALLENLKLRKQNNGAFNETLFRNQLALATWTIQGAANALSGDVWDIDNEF

Substance: OKT9 mIgG (antibody)
- pKd [1]: 9.27
- kon [1]: 774000 M⁻¹ s⁻¹

Substance: TfR2 Monoclonal Antibody (OTI1B1)
- EC50 (read off the curve) [2]: 2 nM
